Test results as given in patent publication US6461867.

T1: soluble H-2K^b (K^bsol), empty heterodimer of truncated K^b heavy chain and murine β-2 microglobulin (murine), P01901
T1 chain 1: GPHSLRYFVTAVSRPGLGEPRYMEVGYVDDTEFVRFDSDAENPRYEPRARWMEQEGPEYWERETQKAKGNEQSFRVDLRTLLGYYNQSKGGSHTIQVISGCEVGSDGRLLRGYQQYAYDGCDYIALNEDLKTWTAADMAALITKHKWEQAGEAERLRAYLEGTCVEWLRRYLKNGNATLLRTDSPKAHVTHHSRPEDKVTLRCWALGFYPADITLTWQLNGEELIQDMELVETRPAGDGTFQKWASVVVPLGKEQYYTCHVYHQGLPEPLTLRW
T1 chain 2: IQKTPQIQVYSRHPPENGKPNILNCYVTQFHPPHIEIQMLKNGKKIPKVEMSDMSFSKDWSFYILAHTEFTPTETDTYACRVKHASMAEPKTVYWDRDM


Molecular target: T1, soluble H-2K^b (K^bsol), empty …

Binder	Kd [nM]
SIINFEKLT (modifications not checked) [OVA-9C peptide]	11
SIINFEKLTE (modifications not checked) [OVA-10C peptide]	14
EQLESIINFEKLTEWTSSNVMEER (modifications not checked) [OVA-24 peptide]	71000
SIINFEKL (modifications not checked) [OVA-8 peptide (ovalbumin 257-264)]	4.1
LESIINFEKL (modifications not checked) [OVA-10N peptide]	280
